Non-standard residues stand in square brackets, D forms with d. Residues, ends and D or L forms follow the SMILES beside them. No end group written: not given here. Ala(1H-tetrazol-5-yl) = N[C@@H](Cc1nnn[nH]1)C(=O)O; Tz = tetrazole-substituted aspartic acid; Aib = CC(C)(N)C(=O)O
T1: VPAC1 receptor (UniProt P32241 31-457, limits assumed)
T1 sequence (looked up): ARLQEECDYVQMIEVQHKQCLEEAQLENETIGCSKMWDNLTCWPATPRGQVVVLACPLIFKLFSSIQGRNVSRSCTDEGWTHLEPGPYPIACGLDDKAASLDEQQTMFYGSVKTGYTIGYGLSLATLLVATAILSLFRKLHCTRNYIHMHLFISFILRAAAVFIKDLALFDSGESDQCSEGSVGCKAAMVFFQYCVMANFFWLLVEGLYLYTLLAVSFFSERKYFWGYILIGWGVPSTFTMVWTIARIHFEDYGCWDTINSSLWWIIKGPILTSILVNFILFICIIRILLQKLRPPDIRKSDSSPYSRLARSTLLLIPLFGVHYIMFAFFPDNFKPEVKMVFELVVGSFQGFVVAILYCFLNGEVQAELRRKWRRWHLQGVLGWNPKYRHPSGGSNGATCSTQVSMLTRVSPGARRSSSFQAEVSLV

T2: PAC1 receptor (UniProt P41586 21-468, limits assumed)
T2 sequence (looked up): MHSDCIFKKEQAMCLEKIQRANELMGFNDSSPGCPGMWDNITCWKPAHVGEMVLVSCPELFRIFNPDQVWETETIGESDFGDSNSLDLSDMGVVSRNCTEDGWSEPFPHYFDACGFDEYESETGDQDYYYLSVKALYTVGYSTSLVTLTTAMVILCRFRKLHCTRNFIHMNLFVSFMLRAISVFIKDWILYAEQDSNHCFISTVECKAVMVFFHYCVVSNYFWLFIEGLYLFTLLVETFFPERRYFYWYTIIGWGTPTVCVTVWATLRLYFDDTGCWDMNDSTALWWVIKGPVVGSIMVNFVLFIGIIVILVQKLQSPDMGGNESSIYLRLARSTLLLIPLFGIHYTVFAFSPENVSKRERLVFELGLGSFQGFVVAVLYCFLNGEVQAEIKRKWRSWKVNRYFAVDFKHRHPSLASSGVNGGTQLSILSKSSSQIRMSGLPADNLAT


Key:
[1] = Stability test 1, sample preparation 5: survival rate of peptide in Tris buffer (pH 7.0) after storage, HPLC; type: physicochemical; conditions: 100 μM peptide
Procedure: The peak area value for the peptide in the chromatogram was calculated, and the survival rate (survival rate before correction for water) was calculated using formula (2). The survival rate after correction for water was also calculated from the survival rate before correction for water using formula (3) to take into account the permeability of the container.
The prepared peptide solutions were incubated for 4 weeks or 8 weeks in a 40° C. thermostatic bath, and for one week or 2 weeks in a thermostatic bath at 60° C., to obtain stored samples.
The following gradient time was used only for peptide 30.

VPAC1 receptor = target: T1, VPAC1 receptor; assay: cell-based or functional assay
PAC1 receptor = target: T2, PAC1 receptor; assay: cell-based or functional assay

Molecule	EC50, cAMP assay (Hit Hunter cAMP, chemiluminescence RLU) (VPAC1 receptor)	EC50, cAMP assay (Hit Hunter cAMP, chemiluminescence RLU) (PAC1 receptor)	other results
CC[C@H](C)[C@H](NC(=O)CNC(=O)[C@H](Cc1nnn[nH]1)NC(=O)[C@H](C)NC(=O)[C@H](Cc1c[nH]cn1)NC(C)=O)C(=O)N[C@@H](Cc1ccccc1)C(=O)N[C@@H](C)C(=O)N[C@@H](Cc1nnn[nH]1)C(=O)N[C@@H](C)C(=O)N[C@@H](Cc1ccc(O)cc1)C(=O)N[C@@H](CO)C(=O)N[C@@H](CCCNC(=N)N)C(=O)N[C@@H](Cc1ccc(O)cc1)C(=O)N[C@@H](CCCNC(=N)N)C(=O)N[C@@H](CCCCN)C(=O)N[C@@H](C)C(=O)N[C@@H](C)C(=O)N[C@@H](C)C(=O)N[C@H](C(=O)N[C@@H](CCCCN)C(=O)N[C@@H](CCCCN)C(=O)N[C@@H](Cc1ccc(O)cc1)C(=O)N[C@@H](CC(C)C)C(=O)N[C@@H](C)C(=O)N[C@@H](C)C(=O)N[C@H](C(=O)N[C@@H](CC(C)C)C(N)=O)C(C)C)C(C)C [Peptide 30, HATzGI FATzAY SRYRK AAAVK KYLAA VL] (Ac-HA[Ala(1H-tetrazol-5-yl)]GIFA[Ala(1H-tetrazol-5-yl)]AYSRYRKAAAVKKYLAAVL-NH2)			survival rate after correction for water, 40° C. 4 week ([1]; Tris buffer pH 7.0, 40° C., 4 weeks (Table 13)): 91.5%; survival rate after correction for water, 40° C. 8 week ([1]; Tris buffer pH 7.0, 40° C., 8 weeks (Table 13)): 83.4%; survival rate after correction for water, 60° C. 1 week ([1]; Tris buffer pH 7.0, 60° C., 1 week (Table 13)): 96.7%; survival rate after correction for water, 60° C. 2 week ([1]; Tris buffer pH 7.0, 60° C., 2 weeks (Table 13)): 93.7%
HSXGIFTXSYSRYRKQMAVKKYLAAV (tetrazole-substituted aspartic acid (Tz, racemic) at positions 3 and 8; C-terminal amide (NH2)) [Peptide 9]	0.079 nM	0.287 nM	
HSXGIFTXSYSRYRKQXAVKKYLAAVL (tetrazole-substituted aspartic acid (Tz) at position 3; D-form tetrazole-substituted aspartic acid (Tz(D)) at position 8; norleucine (Nl) at position 17; C-terminal amide (NH2)) [Peptide 14]	0.107 nM	0.857 nM	
HSXGIFAXSYSRYRKALAVKKYLAAVL (N-terminal Ac; tetrazole-substituted aspartic acid (Tz) at positions 3 and 8; C-terminal amide (NH2)) [Peptide 28]	0.072 nM	2.12 nM	
HSXGIFTXSYSRYRKQXAVKKYLAAVL (not fully specified; N-terminal CH3CH2CH2CH2CO; tetrazole-substituted aspartic acid (Tz) at positions 3 and 8; norleucine (Nl) at position 17; C-terminal amide (NH2)) [Peptide 20]	0.131 nM	0.574 nM	
HSXGIFTXSYSRYRKQXAVKKYLAAVL (sulfoxy-substituted aspartic acid (cya) at positions 3 and 8; norleucine (Nl) at position 17; C-terminal amide (NH2)) [Peptide 11]	0.08 nM	0.911 nM	
HS[Tz]GIFA[Tz][Aib]Y[Aib]RYRKQMAVKKYLAAVL-NH2 (also: Tz racemic) [Peptide 6]	0.11 nM	1.17 nM	
HSXGIFTXSYSRYRKQXAVKKYLAAVL (tetrazole-substituted aspartic acid (Tz) at position 3; tetrazole-substituted glutamic acid (egTz) at position 8; norleucine (Nl) at position 17; C-terminal amide (NH2)) [Peptide 16]	0.142 nM	1.62 nM	
HSXGIFTXSYSRYRKQXAVKKYLAAVL (N-terminal (CH3)2CHCH2CO; tetrazole-substituted aspartic acid (Tz) at positions 3 and 8; norleucine (Nl) at position 17; C-terminal amide (NH2)) [Peptide 21]	0.141 nM	1.13 nM	
MHSXGIFTXSYSRYRKQLAVKKYLAAVL (tetrazole-substituted aspartic acid (Tz) at positions 4 and 9 of this 28-residue peptide (positions 3 and 8 of PACAP27); C-terminal amide (NH2)) [Peptide 12]	0.651 nM	4.28 nM	
HS[Tz]GIFA[Tz]SY[Aib]RYRKQMAVKKYLAAVL-NH2 (also: Tz racemic) [Peptide 5]	0.078 nM	0.695 nM	
HSXGIFTXSYSRYRKQXAVKKYLAAVL (N-terminal CH3CH2CO; tetrazole-substituted aspartic acid (Tz) at positions 3 and 8; norleucine (Nl) at position 17; C-terminal amide (NH2)) [Peptide 17]	0.071 nM	0.398 nM	
Ac-HA[Tz]GIFT[Tz]SYSRYRKALAVKKYLAAVL-NH2 [Peptide 26]	0.068 nM	0.209 nM	
HS[Ala(1H-tetrazol-5-yl)]GIFA[Ala(1H-tetrazol-5-yl)]AYSRYRKQMAVKKYLAAVL-NH2 (also: Tz racemic at 3 and 8) [Peptide 1]	0.097 nM	1.22 nM	
HS[Tz]GIFA[Tz][Aib]YSRYRKQMAVKKYLAAVL-NH2 (also: Tz racemic) [Peptide 4]	0.121 nM	2.36 nM	
HSXGAFTXSYSRYRKQLAVKKYLAAVL (N-terminal Ac; tetrazole-substituted aspartic acid (Tz) at positions 3 and 8; C-terminal amide (NH2)) [Peptide 23]	0.047 nM	1.15 nM	
HS[Tz]GIFA[Tz]SYARYRKQMAVKKYLAAVL-NH2 (also: Tz racemic) [Peptide 2]	0.085 nM	0.61 nM	
HSXGIFTXSYSRYRKQXAVKKYLAAVL (N-terminal Ac (CH3CO); oxadiazolone-substituted aspartic acid (5Oxa) at positions 3 and 8; norleucine (Nl) at position 17; C-terminal amide (NH2)) [Peptide 22]	0.077 nM	0.376 nM	
HS[Tz]GIFT[Tz]SYSRYRKQMAVKKYLA-NH2 (also: Tz racemic) [Peptide 8]	0.045 nM	0.679 nM	
HSXGIFTXSYSRYRKQLAVKKYLAAVL (sulfoxy-substituted aspartic acid (cya) at positions 3 and 8; C-terminal amide (NH2)) [Peptide 10]	0.057 nM	0.447 nM	
HAXGIFAXSYSRYRKQLAVKKYLAAVL (N-terminal Ac; tetrazole-substituted aspartic acid (Tz) at positions 3 and 8; C-terminal amide (NH2)) [Peptide 25]	0.041 nM	0.693 nM	
Ac-HA[Tz]GIFA[Tz]AYSRYRKAAAVKKYLAAVL-NH2 [Peptide 30]	0.113 nM	2.29 nM	
HSXGIFTXSYSRYRKQXAVKKYLAAVL (D-form tetrazole-substituted aspartic acid (Tz(D)) at position 3; tetrazole-substituted aspartic acid (Tz) at position 8; norleucine (Nl) at position 17; C-terminal amide (NH2)) [Peptide 15]	0.243 nM	0.079 nM	
HSXGIFTXSYSRYRKQXAVKKYLAAVL (N-terminal CH3CH2CH2CO; tetrazole-substituted aspartic acid (Tz) at positions 3 and 8; norleucine (Nl) at position 17; C-terminal amide (NH2)) [Peptide 18]	0.069 nM	0.189 nM	
HSXGIFTXSYSRYRKQXAVKKYLAAVL (D-form tetrazole-substituted aspartic acid (Tz(D)) at positions 3 and 8; norleucine (Nl) at position 17; C-terminal amide (NH2)) [Peptide 13]	0.082 nM	0.738 nM	
HSXGIFAXSYSRYRKQAAVKKYLAAVL (N-terminal Ac; tetrazole-substituted aspartic acid (Tz) at positions 3 and 8; C-terminal amide (NH2)) [Peptide 29]	0.123 nM	3.28 nM	
HSXGIFAXAYSRYRKQLAVKKYLAAVL (N-terminal Ac; tetrazole-substituted aspartic acid (Tz) at positions 3 and 8; C-terminal amide (NH2)) [Peptide 27]	0.111 nM	2.53 nM	
HSXGIFAXSYSRYRKQLAVKKYLAAVL (N-terminal Ac; tetrazole-substituted aspartic acid (Tz) at positions 3 and 8; C-terminal amide (NH2)) [Peptide 24]	0.042 nM	1.26 nM	
HSXGIFTXSYSRYRKQXAVKKYLAAVL (N-terminal (CH3)2CHCO; tetrazole-substituted aspartic acid (Tz) at positions 3 and 8; norleucine (Nl) at position 17; C-terminal amide (NH2)) [Peptide 19]	0.069 nM	0.256 nM	
HS[Tz]GIFT[Tz][Aib]Y[Aib]RYRKQMAVKKYLAAVL-NH2 (also: Tz racemic) [Peptide 7]	0.096 nM	0.319 nM	

From patent US20250263459A1, “STABILIZED PACAP PEPTIDE” (SENJU PHARMACEUTICAL CO., LTD., priority 2019, published 2025)
